# Measured values: US20120114590A1 (priority 2005, published 2012)
# T1: zcyto20 (human IL-28A) (human) (UniProt Q8IZJ0)
# T1 sequence: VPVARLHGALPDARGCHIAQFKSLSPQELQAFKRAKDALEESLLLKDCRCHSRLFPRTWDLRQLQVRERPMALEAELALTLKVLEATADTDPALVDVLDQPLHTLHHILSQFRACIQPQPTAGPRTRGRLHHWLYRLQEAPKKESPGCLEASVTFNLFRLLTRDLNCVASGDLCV
# T2: zcyto24 (mouse IL-28A) (mouse) (UniProt Q4VK74)
# T2 sequence: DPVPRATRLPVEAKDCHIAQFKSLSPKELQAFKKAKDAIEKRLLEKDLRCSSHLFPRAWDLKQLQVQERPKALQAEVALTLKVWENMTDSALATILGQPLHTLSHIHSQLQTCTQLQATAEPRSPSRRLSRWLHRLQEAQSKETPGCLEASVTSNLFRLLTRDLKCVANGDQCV
# B1: huCRF2-4-Fc: homodimeric soluble receptor Fc fusion (protein)
# chain: MVPPPENVRMNSVNFKNILQWESPAFAKGNLTFTAQYLSYRIFQDKCMNTTLTECDFSSLSKYGDHTLRVRAEFADEHSDWVNITFCPVDDTIIGPPGMQVEVLADSLHMRFLAPKIENEYETWTMKNVYNSWTYNVQYWKNGTDEKFQITPQYDFEVLRNLEPWTTYCVQVRGFLPDRNKAGEWSEPVCEQTTHDETVPS
# modifications: left off: a dimerising Fc or GST
# notes: homodimeric soluble receptor Fc fusion
# B2: murine zcytor19-Ig homodimer (Fc fusion, part only; not given: Ig Fc portion, mouse, UniProt Q8CGK5 21-227, looked up, part only)
# chain, part: RPRLAPPRNVTLFSQNFTVYLTWLPGLGSPPNVTYFVTYQSYIKTGWRPVEHCAGIKALVCPLMCLKKLNLYSKFKGRVQAASAHGRSPRVESRYLEYLFDVELAPPTLVLTQMEKILRVNATYQLPPCMPSLELKYQVEFWKEGLGSKTLFPDTPYGQPVQIPLQQGASRRHCLSARTVYTLIDIKYSQFSEPSCIFLEAPGDKRA
# B3: muzcytor19-Ig: murine homodimeric soluble receptor Ig fusion (protein)
# chain: B2 chain, part
# modifications: left off: a dimerising Fc or GST
# notes: murine homodimeric soluble receptor Ig fusion
# B4: human zcytor19-Fc homodimer (Fc fusion, not shown: a dimerising Fc or GST)
# chain: RPRLAPPQNVTLLSQNFSVYLTWLPGLGNPQDVTYFVAYQSSPTRRRWREVEECAGTKELLCSMMCLKKQDLYNKFKGRVRTVSPSSKSPWVESEYLDYLFEVEPAPPVLVLTQTEEILSANATYQLPPCMPPLDLKYEVAFWKEGAGNKTLFPVTPHGQPVQITLQPAASEHHCLSARTIYTFSVPKYSKFSKPTCFLLEVPEANWA
# B5: human zcytor19-Fc homodimeric soluble receptor: homodimeric soluble receptor Fc fusion (protein)
# chain: B4 chain
# modifications: left off: a dimerising Fc or GST
# notes: as for B1
# How the values were obtained:
# [1] = target: T1, zcyto20 (human IL-28A) (human); assay: cell-based or functional assay
# [2] = target: T2, zcyto24 (mouse IL-28A) (mouse); assay: cell-based or functional assay
# [3] = target: zcyto21 (human IL-29) (human) (UniProt Q8IU54); assay: cell-based or functional assay
# [4] = system: liver, spleen and blood of mice; assay: ISG gene expression (OAS, Pkr, Mx1) in liver, spleen and blood of injected C57BL/6 mice (real-time PCR); type: in vivo, mouse; conditions: livers of mice, 100 μg i.v.
# Protocol: Mice were sacrificed at various time points (1 hr-48 hr). Spleens and livers were isolated from mice, and RNA was isolated. RNA was also isolated from the blood cells. The cells were pelleted and RNA isolated from pellets using RNAEasy®-kit (Qiagen). RNA was treated with DNase (Amicon) to rid RNA of any contaminating DNA. cDNA was generated using Perkin-Elmer RT mix (Perkin-Elmer). ISG gene induction was measured by real-time PCR using primers and probes specific for mouse OAS, Pkr and Mx1. To obtain quantitative data, HPRT real-time PCR was duplexed with ISG PCR. A standard curve was calculated using known amounts of IFN-stimulated mouse PBLs. All data are shown as expression relative to internal HPRT expression.
# [5] = system: 293 HEK cells overexpressing zcytor19; assay: Inhibition of ligand-induced ISRE-luciferase signaling by soluble receptors; type: cell-based, human; conditions: 10 micrograms/ml soluble receptor
# zcyto21 (human IL-29) (human), sequence (Q8IU54 20-200): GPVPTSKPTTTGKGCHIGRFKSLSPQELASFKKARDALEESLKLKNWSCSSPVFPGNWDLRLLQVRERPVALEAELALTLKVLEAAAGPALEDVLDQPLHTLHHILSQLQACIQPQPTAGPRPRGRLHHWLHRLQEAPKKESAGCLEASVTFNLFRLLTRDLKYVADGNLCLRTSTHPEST
molecule,measurement,setting,value
human zcytor19-Fc/human CRF2-4-Fc heterodimer (from UniProt Q08334 20-220) (Fc fusion),Percent Inhibition of Ligand-induced Interferon Stimulated Response Element (ISRE) Signaling by Soluble Receptors,[1],16%
same,Percent Inhibition of Ligand-induced Interferon Stimulated Response Element (ISRE) Signaling by Soluble Receptors,[2],47%
same,Percent Inhibition of Ligand-induced Interferon Stimulated Response Element (ISRE) Signaling by Soluble Receptors,[3],16%
MetIL-29-PEG: E. coli derived pegylated Met IL-29,Mx1 3 hr,[4]; 3 hr,537.51 fold expression over HPRT expression
same,OAS 3 hr,[4]; 3 hr,91.29 fold expression over HPRT expression
same,PKR 3 hr,[4]; 3 hr,18.24 fold expression over HPRT expression
same,Mx1 6 hr,[4]; 6 hr,124.99 fold expression over HPRT expression
same,OAS 6 hr,[4]; 6 hr,65.93 fold expression over HPRT expression
same,PKR 6 hr,[4]; 6 hr,13.93 fold expression over HPRT expression
same,Mx1 12 hr,[4]; 12 hr,33.58 fold expression over HPRT expression
same,OAS 12 hr,[4]; 12 hr,54.04 fold expression over HPRT expression
same,PKR 12 hr,[4]; 12 hr,4.99 fold expression over HPRT expression
same,Mx1 24 hr,[4]; 24 hr,35.82 fold expression over HPRT expression
same,OAS (24 hr),[4]; 24 hr,20.81 fold expression over HPRT expression
same,PKR 24 hr,[4]; 24 hr,3.77 fold expression over HPRT expression
human CRF2-4-Fc homodimer (from UniProt Q08334 20-220) (Fc fusion),Percent Inhibition of Ligand-induced Interferon Stimulated Response Element (ISRE) Signaling by Soluble Receptors,[1],80%
same,Percent Inhibition of Ligand-induced Interferon Stimulated Response Element (ISRE) Signaling by Soluble Receptors,[2],82%
same,Percent Inhibition of Ligand-induced Interferon Stimulated Response Element (ISRE) Signaling by Soluble Receptors,[3],79%
B1,effect on ligand-induced signaling,[5],No significant effects
B2,Percent Inhibition of Ligand-induced Interferon Stimulated Response Element (ISRE) Signaling by Soluble Receptors,[1],91%
same,Percent Inhibition of Ligand-induced Interferon Stimulated Response Element (ISRE) Signaling by Soluble Receptors,[2],89%
same,Percent Inhibition of Ligand-induced Interferon Stimulated Response Element (ISRE) Signaling by Soluble Receptors,[3],103%
B3,effect on ligand-induced signaling,[5],No significant effects
B4,Percent Inhibition of Ligand-induced Interferon Stimulated Response Element (ISRE) Signaling by Soluble Receptors,[1],92%
same,Percent Inhibition of Ligand-induced Interferon Stimulated Response Element (ISRE) Signaling by Soluble Receptors,[2],90%
same,Percent Inhibition of Ligand-induced Interferon Stimulated Response Element (ISRE) Signaling by Soluble Receptors,[3],45%
B5,inhibition of zcyto2′-induced signaling,[5],45%
